Source: the nanobody polyreactivity screen of Harvey et al. (2022)

Assay: yeast display, Sf9 membrane polyspecificity reagent, FACS + sequencing; frameworks hold sequencing errors
In short: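 Genes from sorted yeast were amplified by colony PCR, read by MiSeq 2 × 250 sequencing and filtered on CDR length. These cells carried a synthetic nanobody library in Saccharomyces cerevisiae BJ5465 and were sorted by FACS into low and high (top ~1%) gates on anti-HA and streptavidin fluorescence. Polyreactivity is labelled according to the gate of origin.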

| Sequence | polyreactivity (PSR sort gate) |
| --- | --- |
| QVQLVESGGGLVQAGGSLRLSCAASGFIFAEYAMGWSRQAPGQEREFVATINIGGSTYYADSVKGRFTISRDNAKNTVYLQMNSLKPEDTAVYYCAAEFWWGDGSQGIYDYDYWGQGTQVTVSS | low polyreactivity |
| QVQLVESGGGLVQAGGSLRLSCAASGYIFKSYVMGWNRQEPGKESELVAAITWSGGSTYYADSVKGRFTISRDNAKNTVYLQMNSLKPEDTAVYYCAAYRRRYRTTYDYWGQGTQVTVSS | high polyreactivity |
| QVQLVESGGGLVQAGGSLRLSCAASGLTFRKNAMGWYRQAPGKERELVAAISFSGDRTYYADSVKGRFTISRDNAKNTVYLQMNSLKPEDTAVYYCAARSGVPGLEYDYWGQGTQVTVSS | low polyreactivity |
| LVHHVESGGGLVQAGRSLRLTCAASGGTFFSNAMGWYRQSPGKERELVAGITSGGRTYYADAVKGRFTISRDNAMNTVYLQMNSMKPEDTAVFYCAAERFTRKYNYWGQGTQVTLSS | high polyreactivity |
| QVQLVESGGGLDQAGGSLRLICAASGFIFEYYAMGWYRQAPGKERELVASITSGGTTYYADSVKGRFTISRDNAKNTVYLQMNSLKPEDTAVDYCAAAWRIWWYHRGEFDYWGQGTQVTVSS | high polyreactivity |
| QVQLVESGGGLVQAGGSLRLSCAASGFIFGGYAMGWYRQAPGKERELVAAISRSGGSTYYADSVKGRFTISRDNAKNTVDLQINSLKPEDTAVYYCYAVTRRQGFNYWGQGTQVTVSS | high polyreactivity |
| QVQLVESGGGLVQAGGSLRLSCAASGFTFPSNAMGWYRQAPGKERELVAAISSTDSTNYADSVKGRFTISRDNAKNTVYLQMNSLKPEDTAVFYCNADRDDDYDYWGQGTQVTVSS | low polyreactivity |
| QVQLVVSGGGLVQAGGSLRLSCAASGSTFFKYVMGWYIQAPGKERELVAAITWRGGRTYYADSVKGRFTISRDNEKNTVYLQMNSLIPEDTAVYYCAAYDQSLYGRRYDYWGQGTQVTVSS | high polyreactivity |
| QVQLVESGGGLVQAGGSLRLSCAASGSIFWYYAMGWSRQAPGKERELVASISSSGGSTYYADSVKGRFTISRDNAKNTVYLQMNSLKPEDTAVYYCAVRSPYRLSRWRVGYWGQGTQVTVSS | high polyreactivity |
| QVQLVESGGGLVQAGGSLRLICAASGFTFSYNAMGWYRPAPGTERELVAVITKSGGSTNYADSVKGRFTISRDNAKNTVYLQRNSLKPEDTAVYYCNRQIKKLLTTHYYWGQGTQVTVSS | high polyreactivity |
| QGQLVESGGGLVQAGGSLRLSCAASGSIFVQNAMGWYRQAPGKEREFVAVINSGDSTNYADSVKGRFTISRDIAKNTVYLQMNSLKADDTAVYYCAVDDVSYYYLRAYNYELSWYGSGLDYWGQGTQVTVSS | low polyreactivity |
| QVQLVESGGGLVQAGGSLRLSCAASGRIFAHYAMGWYRQAPGKERELVAAIRRSGVSTYYADSVKGRFTSSRDNAKNTVYLQMNSLKPEDTAVYYCNARAYVSPYDYWGQGTQVTVSS | low polyreactivity |
| QVQLVESGGGLVQAGGSLRLSCAPSGLTIGHYAMGWYRQAPGKERELVAAISSGGSTYYADSVKGRFTISRDNAKNTVYLQMNSLKPEDTAVYYCAAVTVGTAYYARTFYYWGQGTQVTVSS | high polyreactivity |
| QVQLVESGGGLVQAGGSLRLSCAASGSTIAYYAMGWYRQAPGKERELVAAISKRGGSTYYADSVKGRFTISRDNAKNTVYLQMNSLKPEDTAGYYCATGRSTDKGYYFWGQGTQVTVSS | high polyreactivity |
| QVQLVESGGGLVQAGGSLRLSCAASGIIFTYYAMGWYRQAPGKERELVAAISVSGSSTYYADSVKGRFTISRDNAKNTVYLQMNSLKPEDTAVYYCAARYQWGTRGFGYWGQGTQVTVSS | high polyreactivity |
| QVQLVESGGGLVQAGGSLRLSCAASGITFGFNAMGWYRQAPGKERELVAAITWSVGRTYYADSVKGRFTISRDNAKNTVYLQMNSLKPEDTAVYYCAKDFEAGDDYFAYDYWGQGTQVTVSS | low polyreactivity |

| Sequence | polyreactivity (PSR sort gate) |
| --- | --- |
| QVQLVESGGGLVQAGGSLRLSCAASGRTFGGNAMGWYRQAPGKERELVASITKRSGSTYYADSVKGRFTISRDNAKNTVYLQMNSLKPEDTAVYYCNTKPSYYFFANTYYGYNDDYWGQGTQVTVSS | high polyreactivity |
| QVQLVESCGGLVQAGGSLRLSCAPSGSTIPPNAMGWNRQAPRQERELVADSSDSSTSYADSVKGRFSISRDNAKNTVYLQMKSQKPEDTAVYYCAAADAGLRSKSYGQQYDYWGQGTQVTVSS | low polyreactivity |
| QVHLVESGGRLVQAGGSLRLSCAASGFTFSYYAMGWYRQAPGKERELVASISRSVNTYYADSVKGRFTISRDNAKNTVYLQMNSLKTEDTAVYYCAAKRISYYSYNFDYWGQGTQVTVSS | high polyreactivity |
| QVQLVESWRGLVQEGGSLRLSCAASGRTFYSYAMGWYIQAPGKERELVAAITRRGTSTYYADSVKGRFTISRDNAKNTVYLQMNSLKPEDTAVYYCAARLPGTFSYGYWGQGTQVTVSS | high polyreactivity |
| QVQLVESGRGLVQAGGILRLSCDASGRTIYFNRMGWYRHAPGKEREFVAAINRSGGSTYYADSVKGRFTISRDNAKNTVYLQMNSLKPEDTAVYYCAADGVIFEYDYWGQGTQVTVSS | low polyreactivity |
| QVQLVESRGGLVQAGGSLRLSCAASGRTFTLNAMGWYRQAPGKERELVARIDWRGITYADSVKGRFTISRDNAKNTVYLQMNSLKPEDTAVYYCAADYVQGFGFYYQWHYDYWGQGTQVTVSS | low polyreactivity |
| QVQLVESGGGLVQAGGSLRLSCAASGSTFPDNAMGWYRQAPGKERELVAAISFSSGSTYYADSVKGRFTISRDNAKNTVYLQMNSLKPEDTAVYYCAADSYPAYLGFVGFDYWGQGTQVTVSS | low polyreactivity |
| QVQLVESGGGLVQAGGSLRLSCAASGIIVAWYAMGWYRQAPGKERELVARISSGASPNYADSVKGRFTISRDNAKNTVYLQMNSLKPEDTSVYYCAAVSHPFRRSRYDYWRQGTQVTVSS | high polyreactivity |
| QVQLVESGGGLVQAGGSLRLSCAASGNIFQRYAMGWYRQAPGKERELVAAISYSGARTYYADSVKGRFTISRDNAKNTVYLQMNSLKPEDTAVYYCATYGGLTKFRLAYDYWGQGTQVTVSS | high polyreactivity |
| QVQLVESGGGLVQAGGSLRLSCAASGFIFPRYAMGWYRQAPGTERELVAAISRGGRTNYADSVKGRFTISRDNAKNTVYFQMNSLKPEDTAVYYCAKKYYLSGSRADDSWGQGTQVTVSS | high polyreactivity |
| QVQLVESGGGLVQAGGSLRLSCAASVRIFYGYTMGWYRQAPGKERELVASIDYSTGRTYYADSVKGRFTISRDNAKNTVYLLMNSLKPEDTAVYYCNADPNYSFLRYDYWGQGTQVTVSS | high polyreactivity |
| QVQLVESGGGLVQAGGSLRLSCAASGRIFIHNAMGWYRQAPGKERELVAAISSRGSRTSYADSVKGRFTISRDNAKNTVYLQMNSLKPEDTSVYYCNAAPIAKYDYWGQGTQVTVSS | high polyreactivity |
| QVQLVESVGGLVQAGGSLRLSCAASGRTLGKYAMGWYIQAPGKERELVAAIRWTGTSTYYADSVKGRFTISRDNAKNTVYLQMNSLKPEDTAVYYCAKGTVHSRPDFGRGWYRWDDYWGQGTQVTVSS | high polyreactivity |
| QVQLVESGGGLVQAGGSLRLTCAASGIIFRVYAMGWYRQATGKERELVAAISQRGGSTYYADSVKGRFTISRDNAKNTVYLLMNSLKPEDTAVYYCAATAPAAAYRARYGYDYWGQGTQVTVSS | high polyreactivity |
| QVQLVESGGGLVQAGGSLRLSCAASGIIFYVYAMGWYRQAPGKERELVAAISSTSSTYADSVKGRFTISRDNAKNTVYLQMNSLKPEDTAVFYCNTDYSDGYPAFDYWGQGTQVTVSS | low polyreactivity |
